Three molecules from patent US20120321619A1 (Bayer, published 2012) can be followed below.

Assay [1] deals with T1, recombinant soluble human C4.4a (human, UniProt O95274 31-308).
T1 construct: recombinant, soluble, purified protein; also called hC4.4a; full length C4.4a
T1 sequence: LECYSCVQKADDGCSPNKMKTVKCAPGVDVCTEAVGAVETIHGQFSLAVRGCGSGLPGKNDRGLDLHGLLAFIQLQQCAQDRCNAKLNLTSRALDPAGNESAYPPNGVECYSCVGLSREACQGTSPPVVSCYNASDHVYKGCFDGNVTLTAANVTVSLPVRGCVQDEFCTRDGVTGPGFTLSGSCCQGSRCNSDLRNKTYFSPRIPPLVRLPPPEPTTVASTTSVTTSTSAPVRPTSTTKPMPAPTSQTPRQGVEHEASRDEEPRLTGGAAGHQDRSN
Put plainly: SPR (Biacore T100), IgG1 captured by anti-human Fc, soluble C4.4a injected, 1:1 fit. The procedure: (§1) Binding affinities of anti C4.4 antibodies were determined by surface plasmon resonance analysis on a Biacore T100 instrument (GE Healthcare Biacore, Inc.). Antibodies were immobilized onto a CM5 sensor chip through an indirect capturing reagent, anti-human IgG Fc. Reagents from the “Human Antibody Capture Kit” (BR-1008-39, GE Healthcare Biacore, Inc.) were used as described by the manufacturer. Approximately 5000 RU monoclonal mouse anti-human IgG (Fc) antibody were immobilized per cell. Anti C4.4 antibodies were injected at a concentration of 5 μg/ml at 10 μl/min for 10 sec to reach a capturing level of approximately 200 to 600 RU. Various concentrations (400 nM, 200 nM, 100 nM, 50 nM, 25 nM, 12.5 nM, 6.25 nM, and 3.12 nM) in HEPES-EP buffer (GE Healthcare Biacore, Inc.) of human or murine C4.4a were injected over immobilized anti C4.4a antibodies at a flow rate of 60 μl/min for 3 minutes and the dissociation was allowed for 10 minutes. Sensograms were generated after in-line reference cell correction followed by buffer sample subtraction. The dissociation equilibrium constant (KD) was calculated based on the ratio of association (kₒₙ) and dissociation rated (koff) constants, obtained by fitting sensograms with a first order 1:1 binding model using Biavaluation Software (version 4.0).
(In general: SPR reads the build-up and loss of mass on a sensor chip optically.)

The target in assay [2] is T2, recombinant soluble murine C4.4a (mouse, UniProt Q91YK8 33-343, limits assumed).
T2 construct: also called mouse C4.4a; mC4.4a
T2 sequence (looked up): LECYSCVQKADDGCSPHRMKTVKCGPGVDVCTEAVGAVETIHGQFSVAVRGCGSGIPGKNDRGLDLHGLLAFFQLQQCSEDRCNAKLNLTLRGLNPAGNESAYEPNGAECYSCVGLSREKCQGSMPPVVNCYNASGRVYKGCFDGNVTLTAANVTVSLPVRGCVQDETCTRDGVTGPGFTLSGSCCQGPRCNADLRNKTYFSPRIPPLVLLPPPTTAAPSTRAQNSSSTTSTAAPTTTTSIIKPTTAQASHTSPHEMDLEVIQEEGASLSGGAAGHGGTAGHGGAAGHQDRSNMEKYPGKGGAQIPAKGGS
The assay is described as above. The procedure: as §1

The target in assay [3] is T3, murine C4.4a on transfected CHO-S:mC4.4a cells (mouse, UniProt Q91YK8 33-343).
T3 construct: full length GPI-anchored form, stably transfected; also called Mouse C4.4a:CHO; mC4.4a: CHO
T3 sequence: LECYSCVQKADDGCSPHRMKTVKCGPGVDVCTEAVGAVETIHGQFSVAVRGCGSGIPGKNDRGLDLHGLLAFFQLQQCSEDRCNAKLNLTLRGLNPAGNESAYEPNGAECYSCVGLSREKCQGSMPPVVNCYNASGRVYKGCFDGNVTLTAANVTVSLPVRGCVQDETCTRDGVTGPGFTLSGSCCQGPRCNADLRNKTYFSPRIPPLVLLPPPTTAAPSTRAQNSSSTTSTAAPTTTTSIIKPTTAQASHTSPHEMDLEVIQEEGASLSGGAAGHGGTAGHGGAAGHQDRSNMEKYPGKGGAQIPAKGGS
Description: FACS titration of IgG1 on CHO-S:mC4.4a cells.

In assay [4] the target is T4, human C4.4a on transfected A549:hC4.4a cells (human, UniProt O95274 31-326).
T4 sequence: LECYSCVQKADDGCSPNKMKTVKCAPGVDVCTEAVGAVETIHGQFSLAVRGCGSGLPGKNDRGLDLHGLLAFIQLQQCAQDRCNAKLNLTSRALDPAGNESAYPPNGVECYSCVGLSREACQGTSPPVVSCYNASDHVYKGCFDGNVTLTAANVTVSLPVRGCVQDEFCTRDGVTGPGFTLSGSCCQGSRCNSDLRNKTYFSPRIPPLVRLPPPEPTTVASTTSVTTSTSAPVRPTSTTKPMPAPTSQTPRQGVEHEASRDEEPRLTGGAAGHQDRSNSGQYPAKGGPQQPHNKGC
Put plainly: cell-based or functional assay.

The target in assay [5] is T5, human C4.4a natively expressed on tumor cell lines (human, UniProt O95274 31-326).
T5 construct: whole, on cells; also called NCI H292; NCI H322
T5 sequence (looked up): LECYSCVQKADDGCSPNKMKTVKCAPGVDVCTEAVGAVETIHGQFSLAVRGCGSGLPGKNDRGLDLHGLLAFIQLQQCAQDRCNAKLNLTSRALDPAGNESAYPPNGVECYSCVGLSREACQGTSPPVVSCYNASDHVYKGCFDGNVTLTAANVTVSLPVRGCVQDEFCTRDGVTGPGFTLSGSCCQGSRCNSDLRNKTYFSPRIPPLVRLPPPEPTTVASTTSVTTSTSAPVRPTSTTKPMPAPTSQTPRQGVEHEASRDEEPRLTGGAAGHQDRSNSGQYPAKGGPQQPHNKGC
Description: FACS titration of IgG1 on NCI H292 cells. The procedure: FACS titration was performed in a 96 well microtiter plate, in which serial dilutions of the primary antibody in a volume of 50 W of FACS buffer (3% FCS, in PBS) were mixed with 50 μl of a cell suspension consisting of 2×10^5 cells/ml which had been detached with Cell Dissociation Solution (1×) Non-enzymatic (Sigma), and resuspended in FACS buffer. Incubation was performed at 4° C. for 1 hour with agitation. Cells were pelleted, washed with FACS buffer and resuspended in 100 μl/well of Phycoerythrin labeled goat anti human IgG (Dianova) solution in FACS buffer. Incubation and washing was performed as before. Analysis of cell-bound antibodies was done at the respective detection wavelength using the FACS Array device. EC₅₀ values were determined from fluorescence medians of duplicates using Swift 8.0 software.

B1: D02-7 (antibody, human IgG1, V domains shown)
VH: EVQLLESGGGLVQPGGSLRLSCAASGFTFSDYQMTWIRQTPGKGLEWVSGISWNGGSTHYADSVKGRFTISRDNSKNTLYLQMNSLRAEDTAVYYCAKGDYLVYKSYYFKSWGQGTLVTVSS
VL: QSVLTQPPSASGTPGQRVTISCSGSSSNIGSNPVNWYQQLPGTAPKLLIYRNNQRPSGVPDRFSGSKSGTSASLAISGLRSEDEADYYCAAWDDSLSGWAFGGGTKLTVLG
notes: tested as human IgG1; also called D02-07
As to B1, the results for the Kd in assay [1] and in assay [2] were 9 nM and 22 nM, respectively. Moreover, the EC50 – broadly, the concentration that produces a half-maximal response – in assay [3] amounted to 0.78 nM; in assay [5] it was 0.03 nM. In addition, in assay [4], the “internalization t½ [min] into A549:hC4.4a cells (CypHer 5E labeled antibody)” value (from here on “internalization t½”) was 33 min.

B2: B01-3 (antibody, human IgG1, V domains shown)
VH: EVQLLESGGGLVQPGGSLRLSCAASGFTFSNAWMSWVRQAPGKGLEWVSYISSSGSTIYYADSVKGRFTISRDNSKNTLYLQMNSLRAEDTAVYYCAREGLWAFDYWGQGTLVTVSS
VL: ESVLTQPPSVSGAPGQRVTISCTGSSSNIGAGYVVHWYQQLPGTAPKLLIYDNNKRPSGVPDRFSGSKSGTSASLAISGLRSEDEADYYCAAWDDRLNGPVFGGGTKLTVLG
notes: tested as human IgG1; also called B01-03
Regarding B2, the Kd (in general, a measure of binding affinity in units of concentration) in assay [1] was 60 nM; in assay [2] it was 120 nM. Also, the EC50 in assay [3] is 0.36 nM; in assay [5], 0.06 nM. Further, the “internalization t½” value in assay [4] is 55 min.

B3: B01-10 (antibody, human IgG1, V domains shown)
VH: EVQLLESGGGLVQPGGSLRLSCAASGFTFSSAWMSWVRQAPGKGLEWVSYISSSGSTIYYADSVKGRFTISRDNSKNTLYLQMNSLRAEDTAVYYCAREGLWAFDYWGQGTLVTVSS
VL: QSVLTQPPSVSGAPGQRVTISCTGSSSNIGAGYVVHWYQQLPGTAPKLLIYDNNKRPSGVPDRFSGSKSGTSASLAISGLRSEDEADYYCAAYDDSLSGPVFGGGTKLTVLG
notes: tested as human IgG1
As for B3, the Kd in assay [1] was 4 nM; in assay [2], 1 nM. Moreover, the results for the EC50 in assay [3] and in assay [5] were 0.43 nM and 0.1 nM, respectively. Moreover, the “internalization t½” value in assay [4] came to 30 min.
